Laboratory results: patent US20050032689A1, “Methods for treatment or diagnosis of disease or disorders associated with an APB domain” (New York University, priority 1994, published 2005)
Entries after “also recorded” stand apart in the source; their conditions may differ.

Assays:
[1] = tested on: HER2/neu (HER1/2 chimera); assay: Binding of GST-Shc fusion proteins to HER1/2 chimera from NIH 3T3 lysates, anti-phosphotyrosine blot; conditions: EGF-stimulated NIH 3T3 lysates
Protocol: (§1) FIGS. 4A, 4B, 4C and 4D. Binding of Shc fragments to growth factor receptors. A, schematic diagram illustrating the Shc fragments used in binding studies. Full length murine p52^shc is indicated in (i) while (ii)-(vi) were generated as GST fusion proteins for use in receptor binding studies. B, association of various GST fusion proteins with activated EGF receptor (EGFR). Binding was performed as in FIG. 2A with the exception that all lysates were stimulated with EGF. All studies used 3 μg of fusion proteins except for the Shc SH2 where 10 μg was used. Immunoblotting was performed with anti-phosphotyrosine. C, binding of Shc fusion proteins to NIH 3T3 cells expressing a HER1/2 chimera. This chimera consists of the EGF receptor extracellular binding domain and the intracellular region of HER2/neu. After stimulation of these cells with EGF (200 ng/ml) lysates were prepared and binding as well as blotting studies were performed as in B using anti-phosphotyrosine antibody. D, binding of Shc 1-209 to TrkA. Beads containing 10 μg of GST fusion proteins Shc 1-209, phospholipase C-γ (PLC-γ) SH2 (contains both N and C SH2 domains), or GST alone were added to lysates from 2×10^7 PC12 cells stimulated with 50 ng/ml nerve growth factor (lanes 1, 2, and 4). The binding of the same amount of lysate to 2 μg of anti-TrkA antibody is shown as a positive control and to indicate the position of TrkA on the blot (lane 3). Otherwise, the binding and blotting were performed as in B using anti-phosphotyrosine antibody. […] Protein concentration was determined by SDS-PAGE (polyacrylamide gel electrophoresis) using bovine serum albumin as a standard. […]

TrkA = target: T1, TrkA (Rattus norvegicus, UniProt P35739); assay: Binding of GST fusion proteins to TrkA from nerve growth factor stimulated PC12 cell lysates; conditions: 10 μg GST fusion protein, PC12 lysates stimulated with nerve growth factor
T1 construct: lysates from 2×10^7 PC12 cells stimulated with 50 ng/ml nerve growth factor; endogenous in cells; host or cells: PC12
T1 sequence (P35739 33-799): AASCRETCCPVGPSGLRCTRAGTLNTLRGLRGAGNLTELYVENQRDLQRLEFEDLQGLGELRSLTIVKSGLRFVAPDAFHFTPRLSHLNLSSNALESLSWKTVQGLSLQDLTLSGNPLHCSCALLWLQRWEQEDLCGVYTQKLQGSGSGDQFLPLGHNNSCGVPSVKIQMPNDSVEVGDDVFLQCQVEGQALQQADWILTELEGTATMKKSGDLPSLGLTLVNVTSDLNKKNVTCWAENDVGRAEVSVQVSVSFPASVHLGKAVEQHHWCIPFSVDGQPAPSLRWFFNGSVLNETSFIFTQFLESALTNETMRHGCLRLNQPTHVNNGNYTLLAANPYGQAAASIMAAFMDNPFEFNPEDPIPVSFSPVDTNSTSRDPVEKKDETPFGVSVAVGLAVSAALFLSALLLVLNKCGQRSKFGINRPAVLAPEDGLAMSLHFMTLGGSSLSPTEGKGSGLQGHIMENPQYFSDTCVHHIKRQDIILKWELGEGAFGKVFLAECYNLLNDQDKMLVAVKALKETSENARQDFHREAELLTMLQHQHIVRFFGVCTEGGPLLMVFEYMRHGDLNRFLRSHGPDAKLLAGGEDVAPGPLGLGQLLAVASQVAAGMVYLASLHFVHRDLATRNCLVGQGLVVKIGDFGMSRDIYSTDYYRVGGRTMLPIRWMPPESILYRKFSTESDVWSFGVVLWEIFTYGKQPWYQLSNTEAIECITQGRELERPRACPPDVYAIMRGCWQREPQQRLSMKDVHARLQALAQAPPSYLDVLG
Protocol: as §1, with “4).” for “4). The binding of the same amount of lysate to 2 μg of anti-TrkA antibody is shown as a positive control and to indicate the position of TrkA on the blot (lane 3). Otherwise, the binding and blotting were performed as in B using anti-phosphotyrosine antibody.”

B1: Shc 1-209: Shc amino terminus, first 209 amino acids of murine p52Shc, generated as a GST fusion protein (protein, UniProt P98083 1-209, looked up, fragment)
chain: MDLLPPKPKYNPLRNESLSSLEEGASGSTPPEELPSPSASSLGPILPPLPGDDSPTTLCSFFPRMSNLKLANPAGGRLGPKGEPGKAAEDGEGSAGAALRDSGLLPLLQDMNKLSGGGGRRTRVEGGQLGGEEWTRHGSFVNKPTRGWLHPNDKVMGPGVSYLVRYMGCVEVLQSMRALDFNTRTQVTREAISLVCEAVPGAKGATRRR
modifications: GST fusion
notes: Shc amino terminus, first 209 amino acids of murine p52Shc, generated as a GST fusion protein
- binding to HER2/neu [1]: bound to HER2/neu
- binding to TrkA (TrkA): bound to HER2/neu and TrkA; also recorded: bind in a similar fashion to that seen with the SH2 domain of phospholipase C-λ
